# Patent US20250215100A1
# Target: human CD40 on cells (human) (UniProt P25942)
# Experiment: FACS, inhibition of human CD40L-his binding to CHO-K1/hCD40 cells
# human CD40 on cells (human), sequence (P25942 21-277): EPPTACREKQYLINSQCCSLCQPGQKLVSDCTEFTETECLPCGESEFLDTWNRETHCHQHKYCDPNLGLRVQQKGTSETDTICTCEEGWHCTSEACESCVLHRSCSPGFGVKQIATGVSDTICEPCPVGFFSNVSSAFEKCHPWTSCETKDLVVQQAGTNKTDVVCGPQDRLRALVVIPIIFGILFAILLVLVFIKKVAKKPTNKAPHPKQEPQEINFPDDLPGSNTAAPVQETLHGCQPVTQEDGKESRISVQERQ
substance,measurement,value
hIgG1 (antibody),Maximum inhibition rate (%),2.3%
